Measurements: article PMC6385295 (Nature Communications, 2019)
Ends that are not written are not given here.

T1: refolded recombinant HLA-A*11:01 monomer (peptide-HLA complex) (Homo sapiens, HLA-A*11:01, strain, also: biotinylated in vitro by biotin ligase, peptide-HLA complex)
T1 construct: HLA-A*11:01 α chain, human, extracellular portion; human beta-2-microglobulin (β2m); the peptide of the crystallised complex is in PDB 6ID4; The methods describe one preparation (biotinylated) for all HLA monomers; copies: + +
T1 chain 1: not shown
T1 chain 2: not shown
T1 chain 3: AIFQSSMTK

B1: human monoclonal alloantibody 2E3, recombinant human IgG1 (antibody, V domains shown)
VH: EVQLVQSGAEVKKPGASVKVSCKASGYTFTGYYMHWVRQAPGQGLEWMGWINPNSGGTSYAQKFQGRVTMTRDTSTSTVYMELSSLRSEDTAVYYCARVTTVIAGPVFDYWGQGTLVTVSS
VL: QAVLTQPSSLSASPGASASLTCTLRSGINVGPYNIYWYQQKPGSPPQYLMRYKSDPDKHQGSAVPSRFSGSKDASANAGILLISGLQSEDEADYYCMIWHNNAWVFGGGTKLTVL
notes: variable region of the 2E3 heavy chain; constant region of human IgG1 from the heavy chain expression vector; full-length 2E3 light chain; IgG1; isolated from a human Fab phage library (Humanyx) by panning on HLA-A*11:01; also called 2E3-IgG1; source: HEK293, cotransfected, purified from culture supernatants (protein G Sepharose)
B2: mouse chimeric form of antibody 2E3 (mouse IgG1 constant region) (antibody, V domains shown)
VH: B1 VH
VL: B1 VL
notes: variable region of the 2E3 heavy chain; constant region of mouse IgG1 from the heavy chain expression vector; full-length 2E3 light chain; used for flow cytometry, detected with goat-anti-mouse IgG; also called mouse Fc chimeric antibody; source: HEK293, cotransfected, purified from culture supernatants (protein G Sepharose)

Legend:
[1] = biological target: T1, refolded recombinant HLA-A*11:01 …; experiment: ELISA; affinity determination: streptavidin-coated plate, increasing concentrations of biotinylated antigen (16 h) and of primary antibody (8 h), room temperature; goat-anti-human IgG-HRP; conditions: both partners purified
[2] = biological target: T1, refolded recombinant HLA-A*11:01 …; experiment: quartz crystal microbalance (QCM); Attana Cell A200, 25 °C, PBS running buffer; biotinylated refolded HLA-A*11:01 held on a streptavidin-saturated LNB-carboxyl chip; 2E3-IgG1 injected at 2.5 to 20 nM, single cycle kinetics; conditions: both partners purified
[3] = biological target: T2, HLA-A*26:01 on One Lambda LABScreen Single Antigen beads (Homo sapiens, HLA-A*26:01, strain); experiment: One Lambda LABScreen Single Antigen bead assay (OL-SAB), HLA Class I; 2E3-IgG1 at 1 μg mL^−1, diluted 20× in negative control serum; HLA antigens on beads; conditions: both partners purified
T2 construct: HLA-A*26:01 α chain, human; human beta-2-microglobulin; β2m and peptide are surmised for a class I HLA antigen; source: bought: One Lambda Inc. (LABScreen Single Antigen HLA Class I beads); copies: + +

[4] = biological target: T3, HLA-A*01:01 on One Lambda LABScreen Single Antigen beads (Homo sapiens, HLA-A*01:01, strain); experiment: as above; conditions: both partners purified
T3 construct: HLA-A*01:01 α chain, human; human beta-2-microglobulin; β2m and peptide are surmised for a class I HLA antigen; source: bought: One Lambda Inc. (LABScreen Single Antigen HLA Class I beads); copies: + +

[5] = biological target: T4, HLA-A*36:01 on One Lambda LABScreen Single Antigen beads (Homo sapiens, HLA-A*36:01, strain); experiment: as above; conditions: both partners purified
T4 construct: HLA-A*36:01 α chain, human; human beta-2-microglobulin; β2m and peptide are surmised for a class I HLA antigen; source: bought: One Lambda Inc. (LABScreen Single Antigen HLA Class I beads); copies: + +

[6] = biological target: T5, HLA-A*25:01 on One Lambda LABScreen Single Antigen beads (Homo sapiens, HLA-A*25:01, strain); experiment: as above; conditions: both partners purified
T5 construct: HLA-A*25:01 α chain, human; human beta-2-microglobulin; β2m and peptide are surmised for a class I HLA antigen; source: bought: One Lambda Inc. (LABScreen Single Antigen HLA Class I beads); copies: + +

[7] = biological target: T6, HLA-A*43:01 on One Lambda LABScreen Single Antigen beads (Homo sapiens, HLA-A*43:01, strain); experiment: as above; conditions: both partners purified
T6 construct: HLA-A*43:01 α chain, human; human beta-2-microglobulin; β2m and peptide are surmised for a class I HLA antigen; source: bought: One Lambda Inc. (LABScreen Single Antigen HLA Class I beads); copies: + +

[8] = biological target: T7, HLA-A*80:01 on One Lambda LABScreen Single Antigen beads (Homo sapiens, HLA-A*80:01, strain); experiment: as above; conditions: both partners purified
T7 construct: HLA-A*80:01 α chain, human; human beta-2-microglobulin; β2m and peptide are surmised for a class I HLA antigen; source: bought: One Lambda Inc. (LABScreen Single Antigen HLA Class I beads); copies: + +

[9] = biological target: T8, HLA-A*66:01 on One Lambda LABScreen Single Antigen beads (Homo sapiens, HLA-A*66:01, strain); experiment: as above; conditions: both partners purified
T8 construct: HLA-A*66:01 α chain, human; has Asp90; human beta-2-microglobulin; β2m and peptide are surmised for a class I HLA antigen; source: bought: One Lambda Inc. (LABScreen Single Antigen HLA Class I beads); copies: + +

[10] = biological target: T9, HLA-A*34:02 on One Lambda LABScreen Single Antigen beads (Homo sapiens, HLA-A*34:02, strain); experiment: as above; conditions: both partners purified
T9 construct: HLA-A*34:02 α chain, human; human beta-2-microglobulin; β2m and peptide are surmised for a class I HLA antigen; source: bought: One Lambda Inc. (LABScreen Single Antigen HLA Class I beads); copies: + +

[11] = biological target: T10, HLA-A*34:01 on One Lambda LABScreen Single Antigen beads (Homo sapiens, HLA-A*34:01, strain); experiment: as above; conditions: both partners purified
T10 construct: HLA-A*34:01 α chain, human; human beta-2-microglobulin; β2m and peptide are surmised for a class I HLA antigen; source: bought: One Lambda Inc. (LABScreen Single Antigen HLA Class I beads); copies: + +

[12] = biological target: T11, HLA-B*73:01 on One Lambda LABScreen Single Antigen beads (Homo sapiens, HLA-B*73:01, strain); experiment: as above; conditions: both partners purified
T11 construct: HLA-B*73:01 α chain, human; human beta-2-microglobulin; β2m and peptide are surmised for a class I HLA antigen; source: bought: One Lambda Inc. (LABScreen Single Antigen HLA Class I beads); copies: + +

[13] = biological target: T12, HLA-A*11:01 on One Lambda LABScreen Single Antigen beads (Homo sapiens, HLA-A*11:01, strain); experiment: as above; conditions: both partners purified
T12 construct: HLA-A*11:01 α chain, human; human beta-2-microglobulin; β2m and peptide are surmised for a class I HLA antigen; source: bought: One Lambda Inc. (LABScreen Single Antigen HLA Class I beads); copies: + +

[14] = biological target: T13, HLA-A*11:01 on the surface of HLA-A*11:01-positive EBV-BCLs (Homo sapiens, HLA-A*11:01, strain); experiment: flow cytometry on cells; 0.5×10^6 EBV-BCLs with 5 μg mL^−1 mouse chimeric 2E3, 4 °C, 2 h, PBS with 3% FBS; AlexaFluor-488 goat-anti-mouse IgG; conditions: one partner purified
T13 construct: HLA-A*11:01 α chain, endogenous on Epstein-Barr virus transformed B-cell lines; human beta-2-microglobulin, endogenous; The cells carry other HLA alleles too; also called A*11:01 homozygous EBV-BCLs; HLA-A*11:01 expressing target cell lines; source: endogenous, on HLA-typed EBV-BCLs; copies: + +

Binder | Kd [1] [nM] | Kd [2] [nM] | koff [2] [s⁻¹] | kon [2] [M⁻¹ s⁻¹] | binding result [3] | binding result [4] | binding result [5] | binding result [6] | binding result [7] | binding result [8] | binding result [9] | binding result [10] | binding result [11] | binding result [12] | binding result [13] | binding result [14]
B1 | 0.16 | 10.3 | 0.00033 | 104000 | binds | binds | binds | binds | binds | binds | binds | binds | binds | binds | binds | –
B2 | – | – | – | – | – | – | – | – | – | – | – | – | – | – | – | binds
